According to patent US20210363269A1 (ALX ONCOLOGY, published 2021):

B1: AB218a (antibody, human IgG1, V domains shown)
VH: DVQLVESGGGVVRPGESLTLSCTASGFTFTSSTMNWVRQAPGEGLDWVSSISTSGVITYYADSVKGRATISRDNSKNTLYLRLFSLRADDTAIYYCATDTFDHWGPGTLVTVSS
VL: ALTQPASVSANPGETVKITCFGSSGNYGWFQQKSPGSAPVTVIHYNNKRPSDIPSRFSGSKSGSTGTLTITGVRAEDEAVYFCGAWETGSATFGAGTTLTVL
notes: Human IgG1 with L234A, L235A, G237A and N297A ('a' format)
B2: 218-Hum14/VH_wt (antibody, V domains shown)
VH: B1 VH
VL: SYELTQPPSVSVSPGQTASITCFGSSGNYGWYQQKPGQSPVLVIYYNNKRPSGIPERFSGSNSGNTATLTISGTQAMDEADYYCGAWETGSATFGGGTKLTVL
B3: 218-Hum13/VH_wt (antibody, V domains shown)
VH: B1 VH
VL: QSALTQPASVSGSPGQSITISCFGSSGNYGLVSWYQQHPGKAPKLMIYYNNKRPSGVSNRFSGSKSGNTASLTISGLQAEDEADYYCGAWETGSATFGGGTKLTVL

Assays:
[1] = target: T1, human SIRP-α v1 D1 domain (human, UniProt P78324 31-149); assay: method not stated at the table (SPR elsewhere in the filing)
T1 construct: also called human v1; human α v1
T1 sequence (P78324 31-149 limits assumed): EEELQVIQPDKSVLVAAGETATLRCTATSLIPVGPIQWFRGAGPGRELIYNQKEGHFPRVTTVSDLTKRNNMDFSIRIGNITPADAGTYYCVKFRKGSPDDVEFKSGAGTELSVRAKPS

[2] = target: T2, human SIRP-α v2 D1 domain (human); assay: as above
T2 construct: also called human v2; human α v2

Binder | Kd [1] | Kd [2]
B1 | 0.16 nM | 0.323 nM
B2 | 34.5 nM | 53.1 nM
B3 | 29.3 nM | 33.8 nM
